Assay results as given in patent US20170079251.

Key:
Assay in all cases: cell_activity
[1] = system: btPRLR 9.4 TALEN right (synthetic); conditions: pair inactive, bovine fibroblasts
[2] = system: btPRLR 9.12 TALEN right (synthetic); conditions: pair value, bovine fibroblasts; also active in zygotes (Table VI)
[3] = system: btPRLR 9.12 TALEN left (synthetic); conditions: pair value, bovine fibroblasts; also active in zygotes (Table VI)
[4] = system: btPRLR 9.3 TALEN left (synthetic); conditions: pair inactive, bovine fibroblasts
[5] = system: btPRLR 9.10 TALEN right (synthetic); conditions: pair inactive, bovine fibroblasts
[6] = system: btPRLR 9.8 TALEN left (synthetic); conditions: pair value, bovine fibroblasts; also active in zygotes (Table VI)
[7] = system: btPRLR 9.13 TALEN left (synthetic); conditions: pair value; printed RVDs lack one HD relative to target
[8] = system: btPRLR 9.5 TALEN right (synthetic); conditions: pair value, bovine fibroblasts
[9] = system: btPRLR 9.1 TALEN left (synthetic); conditions: pair value, bovine fibroblasts, TALEN mRNA
[10] = system: btPRLR 9.1 TALEN right (synthetic); conditions: pair value, bovine fibroblasts, TALEN mRNA
[11] = system: btPRLR 9.8 TALEN right (synthetic); conditions: pair value, bovine fibroblasts; also active in zygotes (Table VI)
[12] = system: btPRLR 9.11 TALEN left (synthetic); conditions: pair inactive, bovine fibroblasts
[13] = system: btPRLR 9.5 TALEN left (synthetic); conditions: pair value, bovine fibroblasts
[14] = system: btPRLR 9.11 TALEN right (synthetic); conditions: pair inactive, bovine fibroblasts
[15] = system: btPRLR 9.7 TALEN right (synthetic); conditions: pair inactive; printed RVDs read the sense strand
[16] = system: btPRLR 9.2 TALEN right (synthetic); conditions: pair inactive, bovine fibroblasts
[17] = system: btPRLR 9.9 TALEN right (synthetic); conditions: pair inactive, bovine fibroblasts
[18] = system: btPRLR 9.14 TALEN right (synthetic); conditions: pair inactive, bovine fibroblasts
[19] = system: btPRLR 9.6 TALEN right (synthetic); conditions: pair inactive; one RVD printed as N, read as NN
[20] = system: btPRLR 9.10 TALEN left (synthetic); conditions: pair inactive, bovine fibroblasts
[21] = system: btPRLR 9.2 TALEN left (synthetic); conditions: pair inactive, bovine fibroblasts
[22] = system: btPRLR 9.14 TALEN left (synthetic); conditions: pair inactive, bovine fibroblasts
[23] = system: btPRLR 9.13 TALEN right (synthetic); conditions: pair value, bovine fibroblasts
[24] = system: btPRLR 9.7 TALEN left (synthetic); conditions: pair inactive, bovine fibroblasts
[25] = system: btPRLR 9.9 TALEN left (synthetic); conditions: pair inactive, bovine fibroblasts
[26] = system: btPRLR 9.6 TALEN left (synthetic); conditions: pair inactive, bovine fibroblasts
[27] = system: btPRLR 9.4 TALEN left (synthetic); conditions: pair inactive, but same left RVDs active in 9.5
[28] = system: btPRLR 9.3 TALEN right (synthetic); conditions: pair inactive, bovine fibroblasts

For “GCTTTAAAAGCCTCAAAAACCATTGAAACTGGCAGGGAAGGAAAGGCAACCA (double strand) [9.4 right site]”, the activity [1] was 0 % Cel-I.
“TCGCTGGACCAAACAGACCAACATGCTTTAAAAGCCTCAAAAACCATTG (double strand) [9.12 right site]” was tested, and the activity [2] was 15.9 % Cel-I.
In the case of “TCGCTGGACCAAACAGACCAACATGCTTTAAAAGCCTCAAAAACCATTG (double strand) [9.12 left site]”, the activity [3] is reported as 15.9 % Cel-I.
“GGCCGGCACCACAGCCACTTCGCTGGACCAAACAGACCAACATGCTTTAA (double strand) [9.3 left site]” was tested, and the activity [4] was 0 % Cel-I.
For “GGCCACGACCCCAAGACAAAACCCCCTTGATCTCTGCTAAACCCTTGGAAT (double strand) [9.10 right site]”, the activity [5] was 0 % Cel-I.
“GTGGCCACGACCCCAAGACAAAACCCCCTTGATCTCTGCTAAACCCTTGG (double strand) [9.8 left site]” was tested, and the activity [6] was 10.1 % Cel-I.
Work on “AAAAGCCTCAAAAACCATTGAAACTGGCAGGGAAGGAAAGGCAACCAAGCAG (double strand) [9.13 left site]” yielded an activity [7] of 6.8 % Cel-I.
For “GCTTTAAAAGCCTCAAAAACCATTGAAACTGGCAGGGAAGGAAAGGCAACCA (double strand) [9.5 right site]”, the activity [8] was 13.9 % Cel-I.
“GGCCGGCACCACAGCCACTTCGCTGGACCAAACAGACCAACATGCTTTA (double strand) [9.1 left site]” gave an activity [9] of 20.9 % Cel-I.
With “GGCCGGCACCACAGCCACTTCGCTGGACCAAACAGACCAACATGCTTTA (double strand) [9.1 right site]” the activity [10] was 20.9 % Cel-I.
Work on “GTGGCCACGACCCCAAGACAAAACCCCCTTGATCTCTGCTAAACCCTTGG (double strand) [9.8 right site]” yielded an activity [11] of 10.1 % Cel-I.
Sequence “CAAAAACCATTGAAACTGGCAGGGAAGGAAAGGCAACCAAGCAGAGGGAGTC (double strand) [9.11 left site]” has an activity [12] of 0 % Cel-I.
In the case of “GCTTTAAAAGCCTCAAAAACCATTGAAACTGGCAGGGAAGGAAAGGCAACCA (double strand) [9.5 left site]”, the activity [13] is reported as 13.9 % Cel-I.
With “CAAAAACCATTGAAACTGGCAGGGAAGGAAAGGCAACCAAGCAGAGGGAGTC (double strand) [9.11 right site]” the activity [14] was 0 % Cel-I.
Sequence “CAGACCAACATGCTTTAAAAGCCTCAAAAACCATTGAAACTGGCAG (double strand) [9.7 right site]” has an activity [15] of 0 % Cel-I.
In the case of “GCTTTAAAAGCCTCAAAAACCATTGAAACTGGCAGGGAAGGAAAGGC (double strand) [9.2 right site]”, the activity [16] is reported as 0 % Cel-I.
“CAGAAGGCTGCAGTTCCAAGCCTGACCAAGACACGGTGTGGCCACG (double strand) [9.9 right site]” gave an activity [17] of 0 % Cel-I.
In the case of “CAAAAACCATTGAAACTGGCAGGGAAGGAAAGGCAACCAAGCAGAGGGAGTC (double strand) [9.14 right site]”, the activity [18] is reported as 0 % Cel-I.
“GGCCGGCACCACAGCCACTTCGCTGGACCAAACAGACCAACATGCTTT (double strand) [9.6 right site]” showed an activity [19] of 0 % Cel-I.
“GGCCACGACCCCAAGACAAAACCCCCTTGATCTCTGCTAAACCCTTGGAAT (double strand) [9.10 left site]” gave an activity [20] of 0 % Cel-I.
For “GCTTTAAAAGCCTCAAAAACCATTGAAACTGGCAGGGAAGGAAAGGC (double strand) [9.2 left site]”, the activity [21] was 0 % Cel-I.
“CAAAAACCATTGAAACTGGCAGGGAAGGAAAGGCAACCAAGCAGAGGGAGTC (double strand) [9.14 left site]” was tested, and the activity [22] was 0 % Cel-I.
“AAAAGCCTCAAAAACCATTGAAACTGGCAGGGAAGGAAAGGCAACCAAGCAG (double strand) [9.13 right site]” was tested, and the activity [23] was 6.8 % Cel-I.
Work on “CAGACCAACATGCTTTAAAAGCCTCAAAAACCATTGAAACTGGCAG (double strand) [9.7 left site]” yielded an activity [24] of 0 % Cel-I.
“CAGAAGGCTGCAGTTCCAAGCCTGACCAAGACACGGTGTGGCCACG (double strand) [9.9 left site]” was tested, and the activity [25] was 0 % Cel-I.
Sequence “GGCCGGCACCACAGCCACTTCGCTGGACCAAACAGACCAACATGCTTT (double strand) [9.6 left site]” has an activity [26] of 0 % Cel-I.
“GCTTTAAAAGCCTCAAAAACCATTGAAACTGGCAGGGAAGGAAAGGCAACCA (double strand) [9.4 left site]” showed an activity [27] of 0 % Cel-I.
With “GGCCGGCACCACAGCCACTTCGCTGGACCAAACAGACCAACATGCTTTAA (double strand) [9.3 right site]” the activity [28] was 0 % Cel-I.
